These results are taken from publication PMC10426277.

For this assay, the target named is Peroxiredoxin 4 wildtype, recombinant full-length (human) (UniProt Q13162). The assay can be described thus: SPR.

Chain of Sulfiredoxin (Srx), recombinant full-length (Q9BYN0 whole entry): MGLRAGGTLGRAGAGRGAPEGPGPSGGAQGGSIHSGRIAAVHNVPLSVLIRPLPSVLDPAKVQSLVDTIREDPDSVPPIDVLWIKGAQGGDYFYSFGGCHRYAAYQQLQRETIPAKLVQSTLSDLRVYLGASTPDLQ

“Sulfiredoxin (Srx), recombinant full-length (from UniProt Q9BYN0 1-137) (enzyme)”: the dissociation constant (Kd) worked out at 3.26 mM, the off-rate (koff) was determined as 0.00166 s⁻¹ and the kon came out at 0.509 M⁻¹ s⁻¹.
